The source of these data is the supplement of paper PMC9732359.

± gives the uncertainty stated by the source.

A short description of this data set: protein stability index of a GFP-peptide fusion (yeast GPS) (PSI 1-4); higher = more stable; sorted into four equal gates, so the index is relative within each strain. A digest of the protocol: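 Plasmids isolated from each sorting gate were PCR-amplified and Illumina-sequenced, and barcodes assigned the reads to strains. The gates, four of equal size, were set by GFP/Cherry fluorescence ratio on mid-log cultures in leucine-free medium. These cultures were yeast carrying a pooled library of tiled 17-residue yeast protein peptides fused downstream of GFP on a plasmid that also expresses Cherry. The protein stability index is the sum of every gate's read frequency times its gate number.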

Regarding EYSPEILQIREEIPSKS [RRP6], the protein stability index by setting is: (doa10∆) 2.66 ± 0.068; (pdr5∆) 2.79 ± 0.08; (san1∆) 2.54 ± 0.072; (ubr1∆) 2.88 ± 0.044.

Sequence HAQSKREGRHSGYGKRK [RPL19A] returned a protein stability index (doa10∆) of 2.8 ± 0.086, a protein stability index (pdr5∆) of 2.9 ± 0.08, a protein stability index (san1∆) of 2.85 ± 0.05 and a protein stability index (ubr1∆) of 2.96 ± 0.042.

Consider TSPQYIPSPLSSTKPPG [NUT1], for which the protein stability index is 2.51 ± 0.039 (doa10∆), 2.42 ± 0.034 (pdr5∆), 2.4 ± 0.048 (san1∆) and 2.45 ± 0.029 (ubr1∆).

The sequence SNKSNSTNESNKSISDE [SSN2] had a protein stability index (doa10∆) of 3.04 ± 0.077, a protein stability index (pdr5∆) of 3.05 ± 0.1, a protein stability index (san1∆) of 3.05 ± 0.069 and a protein stability index (ubr1∆) of 3.09 ± 0.087.

The sequence VNDSVISAPSMEDEILS [BRN1] returned a protein stability index (doa10∆) of 2.05 ± 0.1, a protein stability index (pdr5∆) of 2.29 ± 0.089, a protein stability index (san1∆) of 2.41 ± 0.11 and a protein stability index (ubr1∆) of 2.86 ± 0.073.

For the sequence GARFDDGAGGDNEVQRT [RPT1], the protein stability index reads like this: (doa10∆) 3.58 ± 0.2; (pdr5∆) 3.4 ± 0.26; (san1∆) 3.47 ± 0.24; (ubr1∆) 3.52 ± 0.083.

In the case of MTTSAVSPTVGKLFSDI [YIL149C/MLP2], the protein stability index (doa10∆) amounted to 3.1 ± 0.073, the protein stability index (pdr5∆) was found to be 3.33 ± 0.064, the protein stability index (san1∆) is 3.24 ± 0.044 and the protein stability index (ubr1∆) is 3.16 ± 0.036.

For the sequence DFDNIEFKKIPRVKGFK [SEC65], the protein stability index reads like this: (doa10∆) 2.84 ± 0.14; (pdr5∆) 3.11 ± 0.13; (san1∆) 2.82 ± 0.078; (ubr1∆) 3.13 ± 0.088.

For the sequence NCFFDVIVPQIVLDEVR [DIS3], the protein stability index turned out to be 1.62 ± 0.12 (doa10∆), 1.55 ± 0.17 (pdr5∆) and 1.47 ± 0.12 (ubr1∆).

NLPEHIVPGTYIQERNP [RPS10A]: the protein stability index stood at 2.64 ± 0.069 (doa10∆), 2.62 ± 0.068 (pdr5∆), 2.7 ± 0.047 (san1∆) and 2.68 ± 0.045 (ubr1∆).

For FVIGVIIGTFSDSYKVS [RRP40], the protein stability index by setting is: (doa10∆) 1.43 ± 0.057; (pdr5∆) 1.41 ± 0.068; (san1∆) 2.04 ± 0.12; (ubr1∆) 2.23 ± 0.078.

Turning to QGIIYAKVNRPAKIVNF [RPN5], the protein stability index runs as follows: (doa10∆) 2.61 ± 0.13; (pdr5∆) 2.72 ± 0.15; (san1∆) 2.37 ± 0.12; (ubr1∆) 2.4 ± 0.16.

For the sequence GQGYRKVGIWPYFDYIF [YJL039C/NUP192], the protein stability index was determined as 3.37 ± 0.14 (doa10∆), 3.21 ± 0.12 (pdr5∆), 3.03 ± 0.12 (san1∆) and 2.62 ± 0.17 (ubr1∆).

Turning to EVYDFTHAVGNNCEDFV [FAS1], the protein stability index reads like this: (doa10∆) 3.15 ± 0.12; (pdr5∆) 3 ± 0.18; (san1∆) 2.99 ± 0.071; (ubr1∆) 3.05 ± 0.086.

SAGLFGSKPAGGTSLFG [YGL172W/NUP49] registered a protein stability index (doa10∆) of 2.6 ± 0.081, a protein stability index (pdr5∆) of 2.9 ± 0.1, a protein stability index (san1∆) of 2.27 ± 0.098 and a protein stability index (ubr1∆) of 2.66 ± 0.047.

On to DELERILKELSNLETLY [RPB4], for which the protein stability index runs as follows: (doa10∆) 3.21 ± 0.092; (pdr5∆) 3.33 ± 0.082; (san1∆) 3.21 ± 0.072; (ubr1∆) 3.1 ± 0.12.

As for DESDTISFRSNLLKNFI [SNF6], the protein stability index was 2.04 ± 0.084 (doa10∆), 2.55 ± 0.12 (pdr5∆), 2.58 ± 0.15 (san1∆) and 2.41 ± 0.079 (ubr1∆).

In the case of SNSNNNGNKDSSFNFNK [SWI1], the protein stability index runs as follows: (doa10∆) 3.04 ± 0.053; (pdr5∆) 3.17 ± 0.043; (san1∆) 3.13 ± 0.04; (ubr1∆) 3.16 ± 0.04.

As to MFLTRSEYDRGVSTFSP [PUP2], the protein stability index came out at 3.58 ± 0.21 (doa10∆) and 3.34 ± 0.11 (ubr1∆).

In the case of RILAMCVKNHGQSSSIQ [YCS4], the protein stability index is, setting by setting: (doa10∆) 2.11 ± 0.055; (pdr5∆) 1.79 ± 0.051; (san1∆) 2.13 ± 0.057; (ubr1∆) 1.94 ± 0.054.

Turning to LPTPTPTEMEPDLDTEC [SWI1], the protein stability index is, setting by setting: (doa10∆) 2.92 ± 0.05; (pdr5∆) 3.09 ± 0.05; (san1∆) 2.77 ± 0.048; (ubr1∆) 2.94 ± 0.032.

With QKIRNSEGISEATREVF [ITC1], the protein stability index is 3.11 ± 0.2 (doa10∆), 3.47 ± 0.19 (pdr5∆) and 2.81 ± 0.15 (san1∆).

For MSLPATFDLTPEDAQLL [RPS0A], the protein stability index came to 2.75 ± 0.079 (doa10∆), 2.83 ± 0.12 (pdr5∆), 2.47 ± 0.15 (san1∆) and 2.31 ± 0.11 (ubr1∆).

The sequence SNDLDKFFQKKIHLYEK [YGL172W/NUP49] yielded a protein stability index (doa10∆) of 2.21 ± 0.057, a protein stability index (pdr5∆) of 2.22 ± 0.067, a protein stability index (san1∆) of 1.96 ± 0.061 and a protein stability index (ubr1∆) of 2.32 ± 0.052.

PRMYHIGLRQFQQIQYE [POP1]: the protein stability index by setting is: (doa10∆) 2.06 ± 0.098; (pdr5∆) 1.67 ± 0.071; (san1∆) 2.25 ± 0.095; (ubr1∆) 1.48 ± 0.1.

Regarding MVLRNVMEYDVKFYEIF [SRB8], the protein stability index is 1.88 ± 0.081 (doa10∆), 2 ± 0.099 (pdr5∆), 1.62 ± 0.099 (san1∆) and 2.1 ± 0.067 (ubr1∆).

Sequence ETVKLPRVSNQSNEDTF [RRI2] yielded a protein stability index (doa10∆) of 3.06 ± 0.13, a protein stability index (pdr5∆) of 3.22 ± 0.14, a protein stability index (san1∆) of 2.94 ± 0.19 and a protein stability index (ubr1∆) of 3.24 ± 0.1.

In the case of DALEMQWRYLYDTQLKV [ARP7], the protein stability index (doa10∆) was found to be 1.75 ± 0.053, the protein stability index (pdr5∆) is 1.55 ± 0.046, the protein stability index (san1∆) came out at 1.41 ± 0.088 and the protein stability index (ubr1∆) stood at 1.53 ± 0.05.
